Series [1] relates to T1, Fmoc-Gly-Phe-Cys-NH2 (peptide 1).
T1 sequence: GFC

Series [2] has as its system fluorenyl-9-methoxycarbonyl (Fmoc)-SSFYSGGGC-CONH2.

Turning to trypsin, the “disassembly of nanoparticle aggregate” value in series [1] is recorded as 8.5 nm gold particles functionalised with Fmoc-Gly-Phe-Cys-NH2 did not disassemble upon introduction of trypsin.

Prostate Specific Antigen (PSA): in series [2], the “dispersion of the aggregate (percentage change in intensity against time)” value is reported as “Discrimination of PSA concentration is seen after 5 min”.

For the origin of these results see patent US8318206.
